# From the supplement of paper PMC6379048
# Tests used:
# Test in all cases: EC50 of free RNA motif oligo competing protein binding to immobilised probe
# XAB2 = biological target: T1, XAB2 (UniProt Q9HCS7)
# T1 sequence: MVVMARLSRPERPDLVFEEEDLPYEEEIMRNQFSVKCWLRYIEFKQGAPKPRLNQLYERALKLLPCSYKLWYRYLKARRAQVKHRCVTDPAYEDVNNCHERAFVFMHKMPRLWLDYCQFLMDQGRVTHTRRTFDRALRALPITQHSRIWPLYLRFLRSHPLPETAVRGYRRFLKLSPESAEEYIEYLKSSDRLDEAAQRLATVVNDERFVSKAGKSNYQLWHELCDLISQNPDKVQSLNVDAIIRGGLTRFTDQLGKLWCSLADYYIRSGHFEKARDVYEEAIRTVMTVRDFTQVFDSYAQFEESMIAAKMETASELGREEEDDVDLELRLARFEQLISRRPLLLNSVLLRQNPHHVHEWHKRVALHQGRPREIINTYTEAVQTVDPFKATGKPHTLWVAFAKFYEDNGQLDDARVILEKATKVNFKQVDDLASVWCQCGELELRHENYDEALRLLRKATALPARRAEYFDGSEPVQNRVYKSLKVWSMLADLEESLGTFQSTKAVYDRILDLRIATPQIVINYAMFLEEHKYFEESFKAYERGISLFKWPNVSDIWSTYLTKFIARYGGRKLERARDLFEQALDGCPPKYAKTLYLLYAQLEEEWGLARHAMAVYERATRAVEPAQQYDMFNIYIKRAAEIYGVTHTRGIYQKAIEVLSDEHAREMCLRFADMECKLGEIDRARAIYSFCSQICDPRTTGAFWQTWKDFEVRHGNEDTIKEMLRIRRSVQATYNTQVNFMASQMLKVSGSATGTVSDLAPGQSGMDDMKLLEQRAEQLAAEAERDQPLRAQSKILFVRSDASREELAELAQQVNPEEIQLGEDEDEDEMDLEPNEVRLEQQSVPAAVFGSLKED
# In short: (§1)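 To obtain EC50, data were fitted with a four-parameter log-logistic model; Kd was then EC50 multiplied by a protein-dependent depletion factor. Beforehand, free RNA oligos (0 nM to 30 μM) were pre-incubated with HEK293-FT lysate (2.5 mg protein/well) for 1 h at 4°C. The lysate then spent 30 min at 4°C with the same 5′-amino-C6 oligos coupled to NHS-Sepharose beads, and bound proteins were quantified by label-free LC-MS/MS, normalised to the control.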
# KHSRP = biological target: T2, KHSRP (UniProt Q92945)
# T2 sequence: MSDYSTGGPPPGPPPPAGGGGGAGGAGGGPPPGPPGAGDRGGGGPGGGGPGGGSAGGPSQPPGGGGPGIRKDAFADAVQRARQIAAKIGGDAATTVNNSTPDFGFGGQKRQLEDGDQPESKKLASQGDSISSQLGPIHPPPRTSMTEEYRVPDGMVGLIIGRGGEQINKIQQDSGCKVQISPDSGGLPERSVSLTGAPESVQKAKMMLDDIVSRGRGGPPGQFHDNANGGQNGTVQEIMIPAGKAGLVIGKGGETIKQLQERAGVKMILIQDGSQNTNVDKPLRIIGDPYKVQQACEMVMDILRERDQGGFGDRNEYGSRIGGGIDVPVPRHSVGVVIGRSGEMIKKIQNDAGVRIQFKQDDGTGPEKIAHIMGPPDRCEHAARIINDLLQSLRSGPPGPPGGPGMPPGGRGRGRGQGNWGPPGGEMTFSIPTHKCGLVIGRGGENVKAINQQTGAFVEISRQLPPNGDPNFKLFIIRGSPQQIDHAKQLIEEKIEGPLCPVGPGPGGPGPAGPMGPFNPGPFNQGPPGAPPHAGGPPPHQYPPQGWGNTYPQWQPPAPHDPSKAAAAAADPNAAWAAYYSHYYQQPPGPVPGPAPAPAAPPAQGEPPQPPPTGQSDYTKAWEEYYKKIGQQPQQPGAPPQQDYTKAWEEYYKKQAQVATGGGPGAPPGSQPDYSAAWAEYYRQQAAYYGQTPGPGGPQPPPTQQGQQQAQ
# In short: as §1
# TSN = TSN (UniProt Q15631)
# Sequence of TSN (Q15631 whole entry): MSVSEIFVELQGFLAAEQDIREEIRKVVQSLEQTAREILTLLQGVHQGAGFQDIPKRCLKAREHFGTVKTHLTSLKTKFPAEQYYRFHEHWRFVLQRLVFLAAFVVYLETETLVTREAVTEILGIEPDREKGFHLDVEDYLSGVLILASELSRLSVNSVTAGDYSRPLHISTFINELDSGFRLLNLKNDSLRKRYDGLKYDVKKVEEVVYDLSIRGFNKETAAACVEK
# In short: as §1
# XRN1 = XRN1 (UniProt Q8IZH2)
# Sequence of XRN1 (Q8IZH2 whole entry): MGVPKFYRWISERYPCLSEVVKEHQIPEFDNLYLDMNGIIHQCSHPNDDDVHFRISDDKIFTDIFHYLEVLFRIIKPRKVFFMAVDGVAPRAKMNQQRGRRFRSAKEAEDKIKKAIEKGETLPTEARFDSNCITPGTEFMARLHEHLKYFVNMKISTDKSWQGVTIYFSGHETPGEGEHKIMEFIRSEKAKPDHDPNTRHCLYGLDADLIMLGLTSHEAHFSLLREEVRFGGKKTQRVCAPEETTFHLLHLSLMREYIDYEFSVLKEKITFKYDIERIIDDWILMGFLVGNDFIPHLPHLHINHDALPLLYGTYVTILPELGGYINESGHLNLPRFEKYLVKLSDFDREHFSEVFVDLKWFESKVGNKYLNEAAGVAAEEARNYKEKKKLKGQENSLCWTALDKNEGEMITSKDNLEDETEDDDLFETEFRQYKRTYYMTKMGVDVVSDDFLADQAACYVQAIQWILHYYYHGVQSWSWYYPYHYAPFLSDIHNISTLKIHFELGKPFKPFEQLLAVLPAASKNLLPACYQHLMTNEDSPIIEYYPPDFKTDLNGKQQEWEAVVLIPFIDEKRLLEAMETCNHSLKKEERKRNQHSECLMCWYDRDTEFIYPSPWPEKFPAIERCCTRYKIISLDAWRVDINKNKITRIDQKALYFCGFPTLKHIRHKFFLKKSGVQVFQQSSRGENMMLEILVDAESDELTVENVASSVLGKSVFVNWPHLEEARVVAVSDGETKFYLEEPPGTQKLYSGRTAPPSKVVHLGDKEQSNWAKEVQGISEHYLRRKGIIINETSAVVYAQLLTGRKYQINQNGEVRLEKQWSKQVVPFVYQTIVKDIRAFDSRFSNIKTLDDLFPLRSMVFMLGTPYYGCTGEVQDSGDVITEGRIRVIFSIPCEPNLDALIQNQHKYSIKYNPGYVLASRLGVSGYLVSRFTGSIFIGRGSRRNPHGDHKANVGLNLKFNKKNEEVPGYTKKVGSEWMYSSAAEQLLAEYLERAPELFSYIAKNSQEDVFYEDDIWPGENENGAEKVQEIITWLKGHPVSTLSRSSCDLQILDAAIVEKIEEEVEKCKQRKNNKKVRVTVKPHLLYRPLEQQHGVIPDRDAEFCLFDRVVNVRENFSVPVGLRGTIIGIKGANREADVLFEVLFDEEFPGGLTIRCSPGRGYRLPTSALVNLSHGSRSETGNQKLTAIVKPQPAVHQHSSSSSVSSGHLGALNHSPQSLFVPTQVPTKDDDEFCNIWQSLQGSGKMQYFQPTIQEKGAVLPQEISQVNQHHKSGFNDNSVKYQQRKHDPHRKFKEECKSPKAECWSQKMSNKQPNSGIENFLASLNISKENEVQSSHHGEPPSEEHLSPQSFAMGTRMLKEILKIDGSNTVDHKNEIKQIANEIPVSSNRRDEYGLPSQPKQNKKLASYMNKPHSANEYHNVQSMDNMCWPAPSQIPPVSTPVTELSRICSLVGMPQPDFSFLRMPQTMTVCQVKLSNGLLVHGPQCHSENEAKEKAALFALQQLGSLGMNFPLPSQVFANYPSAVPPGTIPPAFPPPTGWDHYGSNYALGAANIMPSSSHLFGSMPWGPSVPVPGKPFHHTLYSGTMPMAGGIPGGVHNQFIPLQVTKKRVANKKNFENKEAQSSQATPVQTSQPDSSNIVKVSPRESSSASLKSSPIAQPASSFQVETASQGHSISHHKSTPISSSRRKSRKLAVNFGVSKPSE
# In short: as §1
# RBMS2 = biological target: T3, RBMS2 (UniProt Q15434)
# T3 sequence: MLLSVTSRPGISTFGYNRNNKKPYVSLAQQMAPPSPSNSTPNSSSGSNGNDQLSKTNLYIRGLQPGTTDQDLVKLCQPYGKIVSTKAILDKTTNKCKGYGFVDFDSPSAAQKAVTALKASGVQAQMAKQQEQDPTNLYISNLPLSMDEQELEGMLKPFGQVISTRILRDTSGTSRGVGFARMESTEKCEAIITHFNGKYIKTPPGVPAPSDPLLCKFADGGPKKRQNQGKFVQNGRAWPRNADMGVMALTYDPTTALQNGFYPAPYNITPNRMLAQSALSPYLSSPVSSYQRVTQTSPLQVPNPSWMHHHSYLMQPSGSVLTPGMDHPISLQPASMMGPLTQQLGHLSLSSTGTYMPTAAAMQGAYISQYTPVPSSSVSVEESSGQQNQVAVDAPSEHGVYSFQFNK
# In short: as §1
# SSB = biological target: T4, SSB (UniProt P05455)
# T4 sequence: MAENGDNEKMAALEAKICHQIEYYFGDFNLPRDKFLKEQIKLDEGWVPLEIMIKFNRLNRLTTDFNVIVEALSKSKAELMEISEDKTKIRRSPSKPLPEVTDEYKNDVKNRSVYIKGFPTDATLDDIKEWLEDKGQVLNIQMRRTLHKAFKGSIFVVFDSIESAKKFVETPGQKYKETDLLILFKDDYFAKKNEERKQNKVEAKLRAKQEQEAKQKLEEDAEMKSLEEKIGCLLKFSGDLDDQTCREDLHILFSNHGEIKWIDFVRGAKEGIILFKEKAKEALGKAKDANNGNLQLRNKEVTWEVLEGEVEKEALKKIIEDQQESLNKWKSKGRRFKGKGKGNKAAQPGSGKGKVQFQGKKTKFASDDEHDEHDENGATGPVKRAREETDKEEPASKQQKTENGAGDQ
# In short: as §1
Sequence,EC50 (XAB2),EC50 (KHSRP),EC50 (TSN),EC50 (XRN1),EC50 (RBMS2),EC50 (SSB)
AAUAAA,1370 nM,2220 nM,58.4 nM,440 nM,1290 nM,
CUGUCCU,,,,,,2640 nM
UAUUUAU,601 nM,1730 nM,75.2 nM,196 nM,545 nM,300 nM
